Measured values from FireProtDB (doi:10.1111/j.1399-3011.1982.tb00898.x).

B1: Tryptophan synthase alpha chain, P0A877 (parent)
chain: MERYESLFAQLKERKEGAFVPFVTLGDPGIEQSLKIIDTLIEAGADALELGIPFSDPLADGPTIQNATLRAFAAGVTPAQCFEMLALIRQKHPTIPIGLLMYANLVFNKGIDEFYAQCEKVGVDSVLVADVPVEESAPFRQAALRHNVAPIFICPPNADDDLLRQIASYGRGYTYLLSRAGVTGAENRAALPLNHLVAKLKEYNAAPPLQGFGISAPDQVKAAIDAGAAGAISGSAIVKIIEQHINEPEKMLAALKVFVQPMKAATRS

Variants of: B1
Settings: Escherichia coli (strain K12), Thermal, DSC, structure 1WQ5, whole UniProt chain shown
[1] = pH 7, 25 °C, potassium phosphate 1 mM, reversible: yes(<50%)
[2] = pH 7, potassium phosphate 1 mM, reversible: yes(<50%)
[3] = pH 9.3, 25 °C, sodium tetraborate 1 mM, reversible: yes(>70%)
[4] = pH 9.3, sodium tetraborate 1 mM, reversible: yes(>70%)

E49S
heat capacity change of unfolding [1]: 2.9 kcal/mol/K
unfolding free energy [1]: 7.7 kcal/mol
Tm [2]: 60.5 °C
heat capacity change of unfolding [2]: 2.9 kcal/mol/K
heat capacity change of unfolding [3]: 2.9 kcal/mol/K
unfolding free energy [3]: 7.1 kcal/mol
Tm [4]: 58.6 °C
heat capacity change of unfolding [4]: 2.9 kcal/mol/K

E49Q
heat capacity change of unfolding [1]: 2.9 kcal/mol/K
unfolding free energy [1]: 7.4 kcal/mol
heat capacity change of unfolding [3]: 2.9 kcal/mol/K
unfolding free energy [3]: 8.4 kcal/mol
Tm [4]: 62.4 °C
heat capacity change of unfolding [4]: 2.9 kcal/mol/K
